In the RNAGym collection of RNA variant scans (doi:10.1073/pnas.2313332121):
Variants at the floor of the assay were thinned out.

B1: TPR 5TU (parent)
chain: GGAUCUUCUCGAUCUAACAAAAAAGACAAAUCUGCCACAAAGCUUGAGAGCAUCUUCGGAUGCAGAGGCGGCAGCCUUCGGUGGCGCGAUAGCGCCAACGUUCUCAACUAUGACACGCAAAACGCGUGCUCCGUUGAAUGGAGUUUAUCAUG

Variants of: B1
Assay: polymerase ribozyme fitness, log enrichment relative to wild type (log ratio); higher = more active; in vitro selection for triplet polymerase activity
In short: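 Each subunit of a heterodimeric triplet polymerase ribozyme was mutagenized into a library by PCR, transcribed, and subjected to one round of in vitro selection, run in triplicate. Libraries were annealed with a biotinylated primer, the partner subunit and triplets, incubated frozen at −7 °C, and extended constructs were gel-excised, captured on streptavidin beads and recovered by RT-PCR. Input and output libraries were sequenced on Illumina, keeping genotypes with ≥10 input reads and ≥1 read per output. Fitness is log base 2 of genotype enrichment divided by wild-type enrichment, from inverse-variance-weighted replicate averages.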

Going from GGAUCUUCUCGAUCUAACAAAAAAGACAAAUCUGCCUCAAAGCUUGAGAGCAUCUUCGGAUGCAGAGGCGGCAGCCUUCGGUGGCGCGAUAGCGCCAACGUUCUCAACUAUGACACGCAAAACGCGUGCUCCGUUGAAUGGAGUUUAUCAUG [A37U] to GGAUCUUCUCGAUCUAACAAAAAAGACAAAUCUGCCUCAAAGCUUGAGAGCGUCUUCGGAUGCAGAGGCGGCAGCAUUCGGUGGCGCGAUAGCGCUAACGUUCUCAACUAUGACACGCAAAACGCGUGCUGCGUUGAAUGGAGUUUAUCAUG [A37U A52G C76A C96U C131G], the “polymerase ribozyme fitness (log ratio)” value falls from -1.11 to ≤ -4.2.

First: GGAUCUUCUCGAUCUAACAAAAAAGACAAAUCUGCCUCAAAGCUUGAGCGCAUCUUCGGAUGGAGAGGCGGCAGCCUUCGGUGGCGGGAUAGCGCCAACGUUCUCAACUAUGACACGCAAAACUCGUGCUCCGUUGAAUGGAGUUUAUCAUG [A37U A49C C63G C87G G124U]
Second: GGAUCUUCUCGAUCUAACAAAAAAGACAAAUCUGCCUCAAAGCUUGAGAGCAUAUUAGGAUGCAGAGGCGGCAGCCUUCGGUGGCGCGAUAGUGCCAACGUUCUCAACUAUGACACGCAAAACGCGUGCUCCGUUGAAUGGAGUUUAUCAUG [A37U C54A C57A C93U]
The “polymerase ribozyme fitness (log ratio)” value of the first is lower: ≤ -4.2 for the first, -3.28 for the second.

First: GGAUCUUCUCGAUCUAACAAAAAAGACAAAUCUGCCUCAAAGCUUGAGAGCAUCUUCGGAUGCAGAGGCGGCAGCCUUCGGUGGCGCGAUAGCGCCAACGUUAUCAACUAUGACACGCAAAACGCGUGCUCCGUUGAAUGGAGUUUAUCAUG [A37U C103A]
Second: GGAUCUUCUCGAUCUAACAAAAAAGACAAAUCUGCCUCAAAGCUUGAGAGCAUCUUCGGAUGCAGAGGCGGCAGCCUUCGGUGGCGCGAUAGCGCCAACGUUCUCAACUAUGACACGCAAAACGCGUGCUCCGUUGAAUGGGGUUUAUCAUU [A37U A142G G152U]
The “polymerase ribozyme fitness (log ratio)” value of the first is higher: -3.85 for the first, -4.13 for the second.

First: GGAUCUUCUCGAUCUAACAAAAAAGACAAAUCUGCCUCAAAGCUUGAGAGCAUCUUCGGAUGCAGAGGCGGCAGACUUCGGUGGUGCGAUAGCGCCAACGUUCUCAACUAUCACACGCAAAACCCGUGCUCGGUUGAAUGGGGUAUAUCAUG [A37U C75A C85U G112C G124C C132G A142G U145A]
Second: GGAUCUUCUCGAUCUAACAAAAAAGACAAAUCUGCCUCAAAGCUUGAGAGCAUCUUCGGAUGCAGAGGCGGCAGCCUUCGGUGGCGCGAUAGCGGCAACGUUCUCAACUAUGACACGCAAAACGCGUGCUCCGUUGAAUGGAGUUUAUCAUG [A37U C95G]
The “polymerase ribozyme fitness (log ratio)” value of the first is lower: ≤ -4.2 for the first, -3.51 for the second.

First: GGAUCUUCUCGAUCUAACAAAAAAGACAAAUCUGCCUCAAAGCUUGAGAGCAUCUUCGGAUGCAGAGGCGGCAGUCUUCGGUAGCGCGAUAGCGCCAUCGUUCUCAACUAUGACACGCAAAACGCGUGCUCCGUUGAAUGGAGUUUAUCAUG [A37U C75U G83A A98U]
Second: GGAUCUUCUCGAUCUAACAAAAAAGACAAAUCUGCCUCAAAGCUUGAGAGCAUCUUCCGAUGCAGAGGCGGCAGCCUUCGGUGGCGCGAUAGCGCCGACGUUCUCAACUAUGACACGCAAAACGCGUGCUCUGUUGAAUGGAGUUUAUCAUG [A37U G58C A97G C132U]
The “polymerase ribozyme fitness (log ratio)” value of the first is lower: -2.88 for the first, -2.67 for the second.

GGAUCUUCUCGAUCUAACAAAAAAGACAAAUCUGCCUUAAAGCUUGAGAGCAUCUUCGGAUGCAGAGGCGGCAGCGUUCGGUGGCGCGAUAGUGCAAACGUUCUCAACUAUGACACGUAAAACGCGUGCUCCGUUGAAUGGAUUUUAUCAUG [A37U C38U C76G C93U C96A C118U G143U] and GGAUCUUCUCGAUCUAACAAAAAAGACAAAUCUGCCGCAAAGCUUGAGAGCAUCUUCGGAUGCAGAGGCGGCAGCCUACGGUGGCGCGAUAGGGCCAACGUUCUCAACUAUGACAUGCAAAACGCGUGCUCCGUUGAAUGGAGUUUAUCAUG [A37G U78A C93G C116U] cannot be ordered by “polymerase ribozyme fitness (log ratio)” value: ≤ -4.2 for the first, ≤ -4.2 for the second.

Compared with GGAUCUUCUCGAUCUAACAAAAAAGACAAAUCUGCCUCAAAGCUUGAGAGCAUCUUCGGAUGCAGAGGCGGCGGCCUUCGGUGGCGCGAUAGCGCCAACGUUCUCAACUAUGACACGCAAAACGCGUGCUCCGUUGAAUGGAGUUUAUCAUG [A37U A73G], GGAUCUUCUCGAUCUAACAAAAAAGACAAAUCUGCCUCACAGCUUGAGAGCAUCAUCAAAUGCAGAGGCGGCAGCCUUCGGUGCCGCGAUAGCGCCAACGUUCUCAACUAUGACACGCAAAACGCAUGCUCCGUUGAAUGGAGUUUAUCAUG [A37U A40C U55A G58A G59A G84C G126A] is lower in “polymerase ribozyme fitness (log ratio)” value: -1.1 for the first, -4.07 for the second.

Going from GGAUCUUCUCGAUCUAACAAAAAAGACAAAUCUGCCUCAAAGCUUGAGAGCCUCUUCGGAUGCAGAGGCGGCUGCCUUCGGUGGCACGAUAGCGCAAACGUUCUCAAGUAUGACACGCAAAACGCGUGCUCCAUUGAAUGAAGUUUAUCAUG [A37U A52C A73U G86A C96A C108G G133A G141A] to GGAUCUUCUCGAUCUAACAAAAAAGACAAAUCUGCCUCAAAGCUUGAGAGCAUCUUCGGAUGCAGAGGCGGCAGCCUUCGGUGGCGCGAUAGCGCCAACGUUCUCAACUAUGACCCGCCAAACGCGUGCUCCGUUGAAUGGAGUUUAUCAUG [A37U A115C A119C], the “polymerase ribozyme fitness (log ratio)” value rises from ≤ -4.2 to -2.95.

GGAUCUUCUCGAUCUAACAAAAAAGACAAAUCUGCCUCAAAGCUUGAGAGCAUCUUCGGAUGCAGAGGCGGCAGCCUUCGGUGGGGCGAUAGCGCCAACGUUCUCAACUAUGACACGCAAAACGUGUGCUCCGUUGAAUGAAGUUUAUCAUG [A37U C85G C125U G141A] and GGAUCUUCUCGAUCUAACAAAAAAGACAAAUCUGCCUCAAAGCUUGCGAGCAUCUUCGGAUGCAGAGGCGGCAGCCUUCGGUGGUGCGAUAGCGUCAACGUUCUCAACUAUGCCACGCAAAACGCGUGCUCCGUUGAAUGGAGUUUAACAUU [A37U A47C C85U C95U A113C U148A G152U] cannot be ordered by “polymerase ribozyme fitness (log ratio)” value: ≤ -4.2 for the first, ≤ -4.2 for the second.

For GGAUCUUCUCGAUCUAACAAAAAAGACAAAUCUGCCUCAAAGCUUGAGAGCAUCUUCACAUGCAGAGGCGGCAGCCUUCGGUGGCGCGAUAGCGCCAACGUUCUCAACUAUGACACGCAAUACGCGUGCUCCGUUGAAUGGAGUUUAUCAUG [A37U G58A G59C A121U], the “polymerase ribozyme fitness (log ratio)” value was -0.167.
